These results are taken from patent US20110059064A1.

Assay [1] concerns the target T1, human voltage-gated potassium channel Kv1.3, expressed endogenously in human peripheral blood T cells (human), P22001.
For assay [2], the target named is T1, human voltage-gated potassium channel …. The source holds these as a separate data set.
Assay [3] deals with human Kv1.2 channel expressed in Cos-7 cells (human), P16389.
The target in assay [4] is T2, mouse Kv1.1 channel stably expressed in L929 cells (mouse), P16388.
T2 chain: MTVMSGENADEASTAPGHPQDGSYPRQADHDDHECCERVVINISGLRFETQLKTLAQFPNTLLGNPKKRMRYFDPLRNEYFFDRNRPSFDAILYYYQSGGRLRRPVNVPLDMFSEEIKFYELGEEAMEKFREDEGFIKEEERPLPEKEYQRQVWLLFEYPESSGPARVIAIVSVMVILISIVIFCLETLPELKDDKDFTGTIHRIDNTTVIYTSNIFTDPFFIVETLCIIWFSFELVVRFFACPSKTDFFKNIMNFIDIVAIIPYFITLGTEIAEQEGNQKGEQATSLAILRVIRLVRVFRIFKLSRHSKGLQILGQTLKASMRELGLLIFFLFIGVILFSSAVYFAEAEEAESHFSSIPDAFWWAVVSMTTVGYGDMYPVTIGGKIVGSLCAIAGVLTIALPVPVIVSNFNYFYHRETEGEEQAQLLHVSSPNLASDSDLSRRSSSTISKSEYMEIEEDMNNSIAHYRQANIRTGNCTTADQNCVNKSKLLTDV

The target of assay [5] is EGFP-tagged human IKCa1 Ca2+-activated K channel expressed in Cos-7 cells (human), O15554.
Sequence of EGFP-tagged human IKCa1 Ca2+-activated K channel expressed in Cos-7 cells (human), O15554 (O15554 whole entry): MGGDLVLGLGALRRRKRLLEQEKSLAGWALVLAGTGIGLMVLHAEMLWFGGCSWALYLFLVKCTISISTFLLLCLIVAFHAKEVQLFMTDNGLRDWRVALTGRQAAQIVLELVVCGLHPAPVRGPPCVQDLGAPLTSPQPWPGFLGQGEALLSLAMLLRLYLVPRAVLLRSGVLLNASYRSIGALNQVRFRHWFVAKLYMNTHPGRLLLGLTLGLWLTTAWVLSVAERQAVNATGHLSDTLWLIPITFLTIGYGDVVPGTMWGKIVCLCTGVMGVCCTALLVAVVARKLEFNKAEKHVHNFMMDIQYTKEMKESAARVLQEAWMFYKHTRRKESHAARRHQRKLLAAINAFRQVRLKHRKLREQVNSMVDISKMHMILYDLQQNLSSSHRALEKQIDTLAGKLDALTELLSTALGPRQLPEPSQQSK

T1 sequence (P22001 whole entry): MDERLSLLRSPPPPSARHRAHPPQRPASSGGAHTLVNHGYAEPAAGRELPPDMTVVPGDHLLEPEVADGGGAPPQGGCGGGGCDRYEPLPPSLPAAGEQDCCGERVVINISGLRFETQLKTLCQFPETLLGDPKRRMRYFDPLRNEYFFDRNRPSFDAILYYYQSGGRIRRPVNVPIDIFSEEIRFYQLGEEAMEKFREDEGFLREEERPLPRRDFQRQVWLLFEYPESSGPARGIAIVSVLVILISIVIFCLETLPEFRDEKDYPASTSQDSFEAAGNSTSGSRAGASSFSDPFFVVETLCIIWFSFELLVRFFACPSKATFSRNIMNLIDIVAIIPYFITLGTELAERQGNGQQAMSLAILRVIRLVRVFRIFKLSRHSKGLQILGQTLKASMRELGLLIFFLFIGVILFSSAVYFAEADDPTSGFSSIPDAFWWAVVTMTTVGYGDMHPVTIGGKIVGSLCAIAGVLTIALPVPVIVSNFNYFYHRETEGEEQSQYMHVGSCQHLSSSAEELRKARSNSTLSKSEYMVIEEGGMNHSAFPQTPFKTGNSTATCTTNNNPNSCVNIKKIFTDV
Sequence of human Kv1.2 channel expressed in Cos-7 cells (human), P16389 (P16389 whole entry): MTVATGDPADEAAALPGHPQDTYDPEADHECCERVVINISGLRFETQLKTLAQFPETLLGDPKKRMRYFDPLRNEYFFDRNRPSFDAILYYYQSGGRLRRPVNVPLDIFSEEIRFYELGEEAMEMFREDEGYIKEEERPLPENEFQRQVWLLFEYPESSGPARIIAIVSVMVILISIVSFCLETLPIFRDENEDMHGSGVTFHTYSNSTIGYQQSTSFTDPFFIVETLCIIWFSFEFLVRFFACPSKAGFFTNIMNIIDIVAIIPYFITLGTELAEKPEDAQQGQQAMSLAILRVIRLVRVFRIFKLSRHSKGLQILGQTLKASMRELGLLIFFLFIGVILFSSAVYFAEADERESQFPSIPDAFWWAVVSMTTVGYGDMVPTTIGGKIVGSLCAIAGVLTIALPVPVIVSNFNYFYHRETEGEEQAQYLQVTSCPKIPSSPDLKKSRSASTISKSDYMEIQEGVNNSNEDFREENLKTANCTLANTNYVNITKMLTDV

B1: Vm24 (native peptide purified from the venom of Vaejovis mexicanus smithi) (peptide)
peptide: AAAISCVGSPECPPKCRAQGCKNGKCMNRKCKCYYC
modifications: not checked
For B1, in assay [1], the dissociation constant Kd turned out to be 0.0029 nM. For the same molecule, in assay [2], the koff stood at 0.00026 s⁻¹ and the time constant for washout came to 3800 s. Moreover, in assay [3], the Kd was in the range of 5 to 10 nM and the selectivity for hKv1.3 over hKv1.2 (fold) was more than 1500 fold. In assay [4], this molecule yielded a Kd of 30 to 40 nM and a selectivity for hKv1.3 over mKv1.1 (fold) of more than 10000 fold. In assay [5], this molecule displayed a Kd of 14 nM and a selectivity for hKv1.3 over hIKCa1 (fold) of more than 4500 fold.
